Test results published in patent US9605064B2, “Methods and compositions for treatment of skin disorders” (AbbVie Biotechnology Ltd, priority 2006, dated 2017).
Several values for one entry are separate records, joined by “and”; a condition that tells them apart may be missing. Identical values can stand only once.

Key:
[1] = tested on: patients with moderate to severe psoriasis; conditions: in vivo
Description: Laboratory parameters and adverse events were also recorded.

[2] = tested on: patients with severe psoriasis who were non-responders to high-dosage etanercept; experiment: DLQI, open-label adalimumab in non-responders to high-dosage etanercept; format: in vivo, human
Description: Details on clinical course and adverse events were recorded, along with measurements of PASI and Dermatology Life Quality Index (DLQI) at baseline and Weeks 2, 4, 8, and 12.
At each clinical visit PASI, DLQI, and percentage body surface area (% BSA) affected were assessed and recorded. In addition, patients received medical assessments together with monitoring laboratory investigations (FIG. 11).

[3] = tested on: patients with moderate to severe chronic plaque psoriasis; experiment: Adverse events, Phase II trial with 48-week extension; conditions: for patients with serious adverse events (SAEs): 60-week trial
Description: The study was a randomized, double-blind, placebo-controlled, multi-center clinical trial, wherein patients were randomized to one of three treatment groups. The three treatment groups consisted of the following: • 1. […] Inclusion criteria included a diagnosis of moderate to severe chronic plaque psoriasis≧1 year prior to entry, a psoriasis-affected body surface area (BSA)>5%, and no previous use of TNF-antagonist therapy.
Inclusion criteria for the study included the following parameters: ≧18 years of age; moderate to severe chronic plaque psoriasis≧1 year; and affected BSA≧5%. […] Efficacy outcome measures included PASI and PGA.
Inclusion criteria included patients being 18 years of age; having moderate to severe chronic plaque psoriasis≧1 year; and affected BSA≧5%. Exclusion criteria included prior TNF-antagonist therapy and discontinuation of other systemic psoriasis therapies. Efficacy outcome measures which were used included PASI, PGA, DLQI.
Inclusion criteria included: • ≧18 years of age • Moderate to severe chronic plaque psoriasis 1 year • Affected BSA≧5% Exclusion criteria included: • Prior TNF-antagonist therapy • Discontinuation of other systemic psoriasis therapies Efficacy outcome was measured using PASI and DLQI responses/scores.

[4] = Week 0-12, 40 mg weekly (N = 50)
[5] = Week 0-60, 40 mg weekly (N = 50)
[6] = Week 0-60, Placebo/Adalimumab 40 mg eow (N = 52)
[7] = Week 12-60, 40 mg weekly (n = 50)
[8] = Week 12-60, Placebo/Adalimumab 40 mg eow + Adalimumab 40 mg eow (n = 92)
[9] = Weeks 0-12, 40 mg weekly (n = 50)
[10] = Weeks 0-12, 40 mg weekly, prior biologic use (n = 9)
[11] = Weeks 12-60, 40 mg weekly (n = 50)
[12] = Weeks 12-60, 40 mg weekly, no prior use (n = 24)
[13] = Weeks 12-60, 40 mg weekly, prior biologic use (n = 7)
[14] = Weeks 12-60, 40 mg weekly, prior systemic use (n = 21)
[15] = Weeks 12-60, Placebo/Adalimumab 40 mg eow + Adalimumab 40 mg eow (n = 92)
[16] = Weeks 12-60, placebo/adalimumab 40 mg eow + adalimumab 40 mg eow, no prior use (n = 47)
[17] = Weeks 12-60, placebo/adalimumab 40 mg eow + adalimumab 40 mg eow, prior biologic use (n = 16)
[18] = Weeks 12-60, placebo/adalimumab 40 mg eow + adalimumab 40 mg eow, prior systemic use (n = 35)
[19] = all patients, Weeks 0-12, 40 mg eow (N = 45)
[20] = all patients, Weeks 0-12, 40 mg weekly (N = 50)
[21] = all patients, Weeks 12-60, 40 mg weekly (n = 50)
[22] = all patients, Weeks 12-60, placebo/adalimumab 40 mg eow + adalimumab 40 mg eow (N = 92)
[23] = baseline PASI ≧10 and DLQI >10, Weeks 0-12, 40 mg eow (N = 26)
[24] = baseline PASI ≧10 and DLQI >10, Weeks 0-12, 40 mg weekly (N = 23)
[25] = baseline PASI ≧10 and DLQI >10, Weeks 12-60, 40 mg weekly (N = 23)
[26] = baseline PASI ≧10 and DLQI >10, Weeks 12-60, placebo/adalimumab 40 mg eow + adalimumab 40 mg eow (N = 41)
[27] = weeks 12-60, 40 mg weekly (N = 50)
[28] = weeks 12-60, placebo/adalimumab 40 mg eow + adalimumab 40 mg eow (N = 92)

Adalimumab: a human anti-TNF mAb, described in U.S. Pat. No. 6,090,382 as D2E7 (HUMIRA, Abbott Laboratories)
Infectious AEs, Patients (%) [1]: 18%
Serious infectious AE, Patients (%) [1]: 1%
patients with serious infections [1]: 0.9%
DLQI ([2]; Week 2, individual patients 1-5 (c1-c5), weekly adalimumab): 17 and 10 and 30 and 9 and 5
DLQI ([2]; Week 4, individual patients 1-5 (c1-c5), weekly adalimumab): 16 and 5 and 28 and 4 and 7
DLQI ([2]; Week 8, individual patients 1-5 (c1-c5), weekly adalimumab): 15 and 3 and 0 and 9
DLQI ([2]; Week 12, individual patients 1-5 (c1-c5), weekly adalimumab): 6 (2×) and 1 and 26 and 2
mean decrease in DLQI score ([2]; five patients, Week 12): 8.8
% Improvement in DLQI from baseline to Week 12 ([2]; individual patients 1-5 (c1-c5), weekly adalimumab): 68% and 91% and 13% and 82% and 57%
Withdrawals: Abnormal lab value, number of patients ([3]; Week 0-12, 40 mg eow (N = 45)): 0
Withdrawals: Adverse events, number of patients ([3]; Week 0-12, 40 mg eow (N = 45)): 2
Withdrawals: Lack of Efficacy, number of patients ([3]; Week 0-12, 40 mg eow (N = 45)): 0
Withdrawals: Abnormal lab value, number of patients [3, 4]: 1
Withdrawals: Adverse events, number of patients [3, 4]: 2
Withdrawals: Lack of Efficacy, number of patients [3, 4]: 0
Withdrawals: Abnormal lab value, number of patients ([3]; Week 0-60, 40 mg eow (N = 45)): 0
Withdrawals: Adverse events, number of patients ([3]; Week 0-60, 40 mg eow (N = 45)): 4
Withdrawals: Lack of Efficacy, number of patients ([3]; Week 0-60, 40 mg eow (N = 45)): 6
Withdrawals: Abnormal lab value, number of patients [3, 5]: 1
Withdrawals: Adverse events, number of patients [3, 5]: 8
Withdrawals: Lack of Efficacy, number of patients [3, 5]: 4
Withdrawals: Abnormal lab value, number of patients [3, 6]: 0
Withdrawals: Adverse events, number of patients [3, 6]: 2
Withdrawals: Lack of Efficacy, number of patients [3, 6]: 6
Back pain, number of patients [3, 7]: 4 n
Back pain, percent of patients [3, 7]: (8.0) %
Blood creatine phosphokinase increased, number of patients [3, 7]: 2 n
Blood creatine phosphokinase increased, percent of patients [3, 7]: (4.0) %
Blood triglycerides increased, number of patients [3, 7]: 2 n
Blood triglycerides increased, percent of patients [3, 7]: (4.0) %
Headache, number of patients [3, 7]: 6 n
Headache, percent of patients [3, 7]: (12.0) %
Muscle strain, number of patients [3, 7]: 4 n
Muscle strain, percent of patients [3, 7]: (8.0) %
Nasopharyngitis, number of patients [3, 7]: 6 n
Nasopharyngitis, percent of patients [3, 7]: (12.0) %
Skin papilloma, number of patients [3, 7]: 5 n
Skin papilloma, percent of patients [3, 7]: (10.0) %
Upper Respiratory Infection, Not otherwise specified, number of patients [3, 7]: 7 n
Upper Respiratory Infection, Not otherwise specified, percent of patients [3, 7]: (14.0) %
Upper Respiratory Infection, Viral not otherwise specified, number of patients [3, 7]: 3 n
Upper Respiratory Infection, Viral not otherwise specified, percent of patients [3, 7]: (6.0) %
Urticaria, number of patients [3, 7]: 3 n
Urticaria, percent of patients [3, 7]: (6.0) %
Back pain [3, 8]: 4 (4.3) n (%)
Blood creatine phosphokinase increased [3, 8]: 5 (5.4) n (%)
Blood triglycerides increased [3, 8]: 7 (7.6) n (%)
Headache [3, 8]: 3 (3.3) n (%)
Muscle strain [3, 8]: 1 (1.1) n (%)
Nasopharyngitis [3, 8]: 13 (14.1) n (%)
Skin papilloma [3, 8]: 3 (3.3) n (%)
Upper Respiratory Infection, Viral not otherwise specified [3, 8]: 4 (4.3) n (%)
Urticaria [3, 8]: 0 (0.0) n (%)
Adverse Events Leading to Withdrawal ([3]; Weeks 0-12, 40 mg eow (n = 45)): 2 (4.4) n (%)
Any Adverse Event ([3]; Weeks 0-12, 40 mg eow (n = 45)): 28 (62.2) n (%)
Serious Adverse Events ([3]; Weeks 0-12, 40 mg eow (n = 45)): 1 (2.2 n (%)
Adverse Events Leading to Withdrawal [3, 9]: 3 (6.0) n (%)
Any Adverse Event [3, 9]: 39 (78.0) n (%)
Serious Adverse Events [3, 9]: 4 (8.0) n (%)
AE's→Withdrawal [3, 10]: 2 (22) n (%)
Any AE [3, 10]: 6 (67) n (%)
Serious AE [3, 10]: 2 (22) n (%)
Adverse Events Leading to Withdrawal [3, 11]: 5 (10.0) n (%)
Any Adverse Event [3, 11]: 39 (78.0) n (%)
Serious Adverse Events [3, 11]: 7 (14.0) n (%)
AE's→Withdrawal [3, 12]: (8) %
AE's→Withdrawal, number of patients [3, 12]: 2
Any AE [3, 12]: (79) %
Any AE, number of patients [3, 12]: 19
Serious AE [3, 12]: (17) %
Serious AE, number of patients [3, 12]: 4
AE's→Withdrawal [3, 13]: (0) %
AE's→Withdrawal, number of patients [3, 13]: 0
Any AE [3, 13]: (86) %
Any AE, number of patients [3, 13]: 6
Serious AE [3, 13]: (0) %
Serious AE, number of patients [3, 13]: 0
AE's→Withdrawal [3, 14]: (14) %
AE's→Withdrawal, number of patients [3, 14]: 3
Any AE [3, 14]: (81) %
Any AE, number of patients [3, 14]: 17
Serious AE [3, 14]: (10) %
Serious AE, number of patients [3, 14]: 2
Adverse Events Leading to Withdrawal [3, 15]: 3 (3.3) n (%)
Any Adverse Event [3, 15]: 72 (78.3) n (%)
Serious Adverse Events [3, 15]: 2 (2.2) n (%)
AE's→Withdrawal [3, 16]: (2) %
AE's→Withdrawal, number of patients [3, 16]: 1
Any AE [3, 16]: (79) %
Any AE, number of patients [3, 16]: 37
Serious AE [3, 16]: (0) %
Serious AE, number of patients [3, 16]: 0
AE's→Withdrawal [3, 17]: (6) %
AE's→Withdrawal, number of patients [3, 17]: 1
Any AE [3, 17]: (75) %
Any AE, number of patients [3, 17]: 12
Serious AE [3, 17]: (13) %
Serious AE, number of patients [3, 17]: 2
AE's→Withdrawal [3, 18]: (6) %
AE's→Withdrawal, number of patients [3, 18]: 2
Any AE [3, 18]: (80) %
Any AE, number of patients [3, 18]: 28
Serious AE [3, 18]: (6) %
Serious AE, number of patients [3, 18]: 2
patients who withdrew due to adverse events ([3]; Weeks 12-60, range across treatment groups): 3-10%
AEs leading to withdrawal [3, 19]: 2 (4) n (%) and 2 (4.4) n (%)
Any AE [3, 19]: 28 (62) n (%) and 28 (62.2) n (%)
Serious AEs [3, 19]: 1 (2) n (%) and 1 (2.2) n (%)
AEs leading to withdrawal [3, 20]: 3 (6) n (%)
Any AE [3, 20]: 39 (78) n (%)
Serious AEs [3, 20]: 4 (8) n (%)
AEs leading to withdrawal [3, 21]: 5 (10) n (%)
Any AE [3, 21]: 39 (78) n (%)
Serious AEs [3, 21]: 7 (14) n (%)
AEs leading to withdrawal [3, 22]: 3 (3) n (%) and 3 (3.3) n (%)
Any AE [3, 22]: 72 (78) n (%) and 72 (87.3) n (%)
Serious AEs [3, 22]: 2 (2) n (%) and 2 (2.2) n (%)
AEs leading to withdrawal [3, 23]: 0 (0) n (%)
Any AE [3, 23]: 16 (62) n (%)
Serious AEs [3, 23]: 0 (0) n (%)
AEs leading to withdrawal [3, 24]: 1 (4) n (%)
Any AE [3, 24]: 19 (83) n (%)
Serious AEs [3, 24]: 2 (9) n (%)
AEs leading to withdrawal [3, 25]: 0 (0) n (%)
Any AE [3, 25]: 11 (48) n (%)
Serious AEs [3, 25]: 0 (0) n (%)
AEs leading to withdrawal [3, 26]: 2 (5) n (%)
Any AE [3, 26]: 23 (56) n (%)
Serious AEs [3, 26]: 1 (2) n (%)
Serious Adverse Events ([3]; dosage escalation group): no serious adverse events were observed
withdrew from the study due to adverse events ([3]; dosage escalation group): two others
Serious Adverse Events ([3]; dosage escalation group, listed as adalimumab): One patient
patients who had adverse events ([3]; patients with PASI 75-99 and DLQI=0): 80%
patients who had adverse events ([3]; patients with PASI 75-99 and DLQI>0): 91%
patients who had adverse events ([3]; patients with PASI 100 and DLQI=0): 91%
patients who had adverse events ([3]; patients with PASI 100 and DLQI>0): 50%
patients with serious adverse events (SAEs) ([3]; prior-biologic patients): 4 patients
patients with serious adverse events (SAEs) ([3]; prior-systemic patients): 7 patients
Back pain, number of patients [3, 27]: 4
Back pain, percentage (in parentheses) [3, 27]: (8.0)
Blood CPK increased, number of patients [3, 27]: 2
Blood CPK increased, percentage (in parentheses) [3, 27]: (4.0)
Blood TG increased, number of patients [3, 27]: 2
Blood TG increased, percentage (in parentheses) [3, 27]: (4.0)
Headache, number of patients [3, 27]: 6
Headache, percentage (in parentheses) [3, 27]: (12.0)
Muscle strain, number of patients [3, 27]: 4
Muscle strain, percentage (in parentheses) [3, 27]: (8.0)
Nasopharyngitis, number of patients [3, 27]: 6
Nasopharyngitis, percentage (in parentheses) [3, 27]: (12.0)
Skin papilloma, number of patients [3, 27]: 5
Skin papilloma, percentage (in parentheses) [3, 27]: (10.0)
URI, NOS, number of patients [3, 27]: 7
URI, NOS, percentage (in parentheses) [3, 27]: (14.0)
URI, viral NOS, number of patients [3, 27]: 3
URI, viral NOS, percentage (in parentheses) [3, 27]: (6.0)
Urticari, number of patients [3, 27]: 3
Urticari, percentage (in parentheses) [3, 27]: (6.0)
Back pain, number (percentage in parentheses) [3, 28]: 4 (4.3)
Blood CPK increased, number (percentage in parentheses) [3, 28]: 5 (5.4)
Blood TG increased, number (percentage in parentheses) [3, 28]: 7 (7.6)
Headache, number (percentage in parentheses) [3, 28]: 3 (3.3)
Muscle strain, number (percentage in parentheses) [3, 28]: 1 (1.1)
Nasopharyngitis, number (percentage in parentheses) [3, 28]: 13 (14.1)
Skin papilloma, number (percentage in parentheses) [3, 28]: 3 (3.3)
URI, NOS, number (percentage in parentheses) [3, 28]: 9 (9.8)
URI, viral NOS, number (percentage in parentheses) [3, 28]: 4 (4.3)
Urticari, number (percentage in parentheses) [3, 28]: 0 (0.0)
patients with serious adverse events (SAEs) ([3]; without recent prior systemic or biologic therapy): 5 patients
